Series [1] can be described thus: luminescent ability of purified photoprotein and its trypsin fragments. It is filed as biochemical, Symplectoteuthis oualaniensis. Particulars: purified protein before and after trypsin digestion. An excerpt: From photogenic organ of okinawan squid, collected at the sea area of Okinawa Prefecture Japan, the photoprotein having a molecular mass of 60 kDa was separated and purified as a luminescent ability as an index. This photoprotein was soluble in a solution containing KCl at a concentration of more than 0.6M. At first, homogenate of the photogenic organ containing symplectin was washed by KCl solution (pH 6.0) of 0.4M. Then, it was extracted with a KCl solution of 0.6M, and a portion thereof was added to a buffer having pH of 8.0 to confirm the luminescent ability. Because of high salt concentration, means of chromatography applicable for purification of the extract was limited. When the purified protein was hydrolyzed by trypsin, two products having molecular masses of 40 kDa and 15 kDa were produced from the original protein of 60 kDa (FIG. 2). […] Fragments of 40 kDa and 15 kDa were recognized after trypsin digestion, particularly in lane 3 corresponding to the purified protein. […] However, the amino acid sequence of the 15 kDa protein was the same as the N-terminal amino acid sequence of the 60 kDa protein. […] Incidentally, the active region responsible for the photogenic function would exist at the C-terminal portion corresponding to the 40 kDa protein.

Series [2] is classed as physicochemical, Symplectoteuthis oualaniensis. An excerpt:
The photoprotein of okinawan squid has a low solubility and there is no conventional method for research of the protein. When a surfactant to solubilize the membrane protein is used, luminescent activity of the okinawan squid photoprotein would be disrupted. By addition of KCl (a caotropic salt) to a buffer, the protein can be solubilized without disrupting its activity. The effects of various kinds of salts on the objective protein are examined in the terms of extraction efficiency and luminescent activity. […] Enzymatic characteristic of okinawan squid was investigated. […] (Isobe M. et al., Pure and Appl. Chem., (1998) Vol.70, 2085-2092). From photogenic organ of okinawan squid, collected at the sea area of Okinawa Prefecture Japan, the photoprotein having a molecular mass of 60 kDa was separated and purified as a luminescent ability as an index. This photoprotein was soluble in a solution containing KCl at a concentration of more than 0.6M. At first, homogenate of the photogenic organ containing symplectin was washed by KCl solution (pH 6.0) of 0.4M. Then, it was extracted with a KCl solution of 0.6M, and a portion thereof was added to a buffer having pH of 8.0 to confirm the luminescent ability. Because of high salt concentration, means of chromatography applicable for purification of the extract was limited.

Series [3] can be described thus: enzymatic characteristics and cation trigger of luminescence. The class given is biochemical, Symplectoteuthis oualaniensis. Particulars: different from aequorin. An excerpt:
The photoprotein of okinawan squid has a low solubility and there is no conventional method for research of the protein. When a surfactant to solubilize the membrane protein is used, luminescent activity of the okinawan squid photoprotein would be disrupted. By addition of KCl (a caotropic salt) to a buffer, the protein can be solubilized without disrupting its activity. The effects of various kinds of salts on the objective protein are examined in the terms of extraction efficiency and luminescent activity. […] Enzymatic characteristic of okinawan squid was investigated. […] (Isobe M. et al., Pure and Appl. Chem., (1998) Vol.70, 2085-2092).

The nature of series [4]: bioluminescence assay of recombinant symplectin protein with dehydrocoeleneterazine. The class given is biochemical, Symplectoteuthis oualaniensis. Particulars: complex with dehydrocoeleneterazine, 37° C. for 30 min, alkaline buffer (pH9.8) added. The method, then: The PCR products were separated on an agarose gel succeeded by digestion with EcoRI and SalI. Then it was ligated to EcoRI and SalI site of pET-32a(+) to construct a vector. The vector was designated pET-60 and it was utilized for expression of symplectin protein. The E. coli strain BL21(DE3)pLysS, transformed by pET-60, was grown in Luria broth (LB) at 37° C. Expression of the protein was induced by addition of isopropyl-1-thio-b-D-galactopyranoside (IPTG). The cells were harvested by centrifugation and lysed by sonication in a buffer. The homogenate was centrifuged, and the supernatant was subjected to affinity chromatography using His-Bind Resin. The fusion protein with thioredoxin was purified by a step-wise manner elution with varied imidazole concentrations. The recombinant symplectin protein was obtained as a fusion protein with thioredoxin, according to the manipulation described above. The recombinant symplectin protein was subjected to bioluminescence assay. The recombinant symplectin protein was suspended in a buffer, mixed with chromophore dehydrocoeleneterazine, then protein-chromophore complex was formed by incubation at 37° C. for 30 min. The alkaline buffer (pH9.8) was added to increase pH of the protein-chromophore complex solution and the bioluminescence reaction was initiated. […]

B1: symplectin: photoprotein derived from okinawan squid (Symplectoteuthis oualaniensis), 501 amino acids, SEQ ID NO:1 (protein, listed as Symplectoteuthis oualaniensis)
chain: YVRPVSSWKVAVFEHQVIPPKTDMETREEALDALKLNSDVYHEAVLESRSKGVKMIVFPEYGLYDINTLTRTRMDLMAEKVPHPKHGHRNPCDEPEYQTQSSEMLRTFSCMAKENDMYMVVNMAGREPCRRATEPECPGDKQLLYNTNVAFNNEGDVVARYYKTHLFWEEGWFNSSKNYEMALWDTPIGKFGTFMCFDFQAVQLIEQYNVRHIAYPASWVNLPPIYQSIQSHSAFARFAKINLLAASVHRLETSTYGSGIYSPNGAEIFYFRPDIPKSKLLVAEILPIHVKKPEQTVVNKDNPVFPSEDDDVQDLFDRGDFAFLKYKRMTTRAGTVEVCQKSFCCKARYAVKDRFKEVYAVGVYDGLLSAGANNLYFQICTVIQCPHKKCGLKISKVRTHFKYLNLRADGWLDRYVFPSYTVMYNNYIALDPFVWNYTVAGGIETKPGTSTPLHSANLVARIYAKDSSKHVHQPHPIDEGVIKMAVKYMLYVMAAYVYAAS
Consider B1, for which, in series [1], the “ability to emit luminescence” value is given as “exhibited luminescence”. Moreover, in series [2], the “KCl concentration of solution in which the photoprotein is soluble” value is given as “more than 0.6 M” and the “solubility into an aqueous solution” value was “low”. In addition, the “triggering of luminescence by a divalent cation” value in series [3] is “not triggered by a divalent cation”.

B2: recombinant symplectin protein: recombinant symplectin expressed in E. coli from pET-60 as a fusion protein with thioredoxin (protein)
chain: FEHQVIPPKTDMETREEALDALKLNSDVYHEAVLESRSKGVKMIVFPEYGLYDINTLTRTRMDLMAEKVPHPKHGHRNPCDEPEYQTQSSEMLRTFSCMAKENDMYMVVNMAGREPCRRATEPECPGDKQLLYNTNVAFNNEGDVVARYYKTHLFWEEGWFNSSKNYEMALWDTPIGKFGTFMCFDFQAVQLIEQYNVRHIAYPASWVNLPPIYQSIQSHSAFARFAKINLLAASVHRLETSTYGSGIYSPNGAEIFYFRPDIPKSKLLVAEILPIHVKKPEQTVVNKDNPVFPSEDDDVQDLFDRGDFAFLKYKRMTTRAGTVEVCQKSFCCKARYAVKDRFKEVYAVGVYDGLLSAGANNLYFQICTVIQCPHKKCGLKISKVRTHFKYLNLRADGWLDRYVFPSYTVMYNNYIALDPFVWNYTVAGGIETKPGTSTPLHSANLVARIYAKDSSKHVHQPHPIDEGVIKMAVKYMLYVMAAYVYAAS
modifications: left off: large carriers; things letters cannot carry
notes: recombinant symplectin expressed in E. coli from pET-60 as a fusion protein with thioredoxin
With B2, the “luminescence monitored by lumiphotometer” value in series [4] is on record as “obvious luminescence was detected”.

B3: 40 kDa protein: 40 kDa trypsin fragment of symplectin, C-terminal portion, SEQ ID NO:2 (protein, listed as Symplectoteuthis oualaniensis)
chain: ATEPECPGDKQLLYNTNVAFNNEGDVVARYYKTHLFWEEGWFNSSKNYEMALWDTPIGKFGTFMCFDFQAVQLIEQYNVRHIAYPASWVNLPPIYQSIQSHSAFARFAKINLLAASVHRLETSTYGSGIYSPNGAEIFYFRPDIPKSKLLVAEILPIHVKKPEQTVVNFDNPVFPSEDDDVQDLFDRGDFAFLKYKRMTTRAGTVEVCQKSFCCKARYAVKDRFKEVYAVGVYDGLLSAGANNLYFQICTVIQCPHKKCGLKISKVRTHFKYLNLRADGWLDRYVFPSYTVMYNNYIALDPFVWNYTVAGGIETKPGTSTPLHSANLVARIYAKDSSKHVHQPHPIDEGVIKMAVKYMLYVMAAYVYAAS
Take B3: the “ability to emit luminescence” value in series [1] is recorded as “exhibited luminescence”; in series [1] (listed as 40 kDa fragment) it was “exhibited photogenic activity”.

The values are drawn from patent US7268215B2, “Photoprotein derived from okinawan squid and gene encoding the photoprotein” (Nagoya University, priority 2000, dated 2007).
